Data reported in patent US20200341015A1.

How the values were obtained:
Test in all cases: cell-based or functional assay
[1] = biological target: recombinant human Rab6A (Jena Biosciences) (human) (UniProt P20340)
[2] = biological target: recombinant human Rab6A (Jena Biosciences) (human) (UniProt P20340); remark: listed apart in the source
[3] = biological target: recombinant human Rab27A (Abnova Corporation) (human) (UniProt P51159)
UniProt P51159, sequence (P51159 whole entry): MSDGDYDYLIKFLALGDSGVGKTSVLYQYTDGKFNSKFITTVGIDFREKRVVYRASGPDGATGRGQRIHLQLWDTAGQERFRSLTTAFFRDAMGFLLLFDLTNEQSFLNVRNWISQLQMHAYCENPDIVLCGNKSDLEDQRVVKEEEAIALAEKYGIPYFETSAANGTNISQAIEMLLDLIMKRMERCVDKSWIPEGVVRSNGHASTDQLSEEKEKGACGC

UniProt P20340, sequence (P20340 whole entry): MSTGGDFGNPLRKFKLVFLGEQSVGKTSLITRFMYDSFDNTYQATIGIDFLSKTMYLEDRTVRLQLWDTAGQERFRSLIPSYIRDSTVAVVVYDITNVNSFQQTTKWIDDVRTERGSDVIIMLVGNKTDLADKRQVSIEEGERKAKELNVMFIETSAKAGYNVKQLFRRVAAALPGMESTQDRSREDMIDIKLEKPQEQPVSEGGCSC

| band intensity of biotinylated Rab6a in positive controls, fold against the Rab27a data of FIG. 2 [1] [fold] | band density of biotinylated substrate, fold against Rab27a in matching conditions [2] [fold] | band density values of biotinylated Rab substrate, condition 12 [2] | band density values of biotinylated Rab substrate, condition 15 [2] | baseline biotin incorporation in untransduced samples (band density) [2] [a.u.] | best-fit top of the curve, biotin incorporation against MOI of rAAV2/2-REP1 (4-PL) [2] [a.u.] | biotinylated substrate, fold against Rab27a (untransduced 293 lysate) [2] [fold] | strength of the WB signal of biotinylated Rab6a, fold against the Rab27a data of FIG. 2 (AAV-REP1 transduced cells) [2] [fold] | band density values of biotinylated Rab substrate, condition 4 [3] | band density values of biotinylated Rab substrate, condition 7 [3] | baseline biotin incorporation in untransduced samples (band density) [3] [a.u.] | best-fit top of the curve, biotin incorporation against MOI of rAAV2/2-REP1 (4-PL) [3] [a.u.] | Molecule |
| --- | --- | --- | --- | --- | --- | --- | --- | --- | --- | --- | --- | --- |
| 100 |  |  |  |  |  |  |  |  |  |  |  | recombinant fish His-REP1 (Jena Biosciences) |
|  | < 2.5 | 1.8 | 0.75 | 5.01 | 92.8 | 2.5 | 10 | 0.8 | 0.3 | 0.577 | 53.8 | human Rab escort protein 1 (REP1) (protein, UniProt P24386 1-653, looked up) MADTLPSEFDVIVIGTGLPESIIAAACSRSGRRVLHVDSRSYYGGNWASFSFSGLLSWLKEYQENSDIVSDSPVWQDQILENEEAIALSRKDKTIQHVEVFCYASQDLHEDVEEAGALQKNHALVTSANSTEAADSAFLPTEDESLSTMSCEMLTEQTPSSDPENALEVNGAEVTGEKENHCDDKTCVPSTSAEDMSENVPIAEDTTEQPKKNRITYSQIIKEGRRFNIDLVSKLLYSRGLLIDLLIKSNVSRYAEFKNITRILAFREGRVEQVPCSRADVFNSKQLTMVEKRMLMKFLTFCMEYEKYPDEYKGYEEITFYEYLKTQKLTPNLQYIVMHSIAMTSETASSTIDGLKATKNFLHCLGRYGNTPFLFPLYGQGELPQCFCRMCAVFGGIYCLRHSVQCLVVDKESRKCKAIIDQFGQRIISEHFLVEDSYFPENMCSRVQYRQISRAVLITDRSVLKTDSDQQISILTVPAEEPGTFAVRVIELCSSTMTCMKGTYLVHLTCTSSKTAREDLESVVQKLFVPYTEMEIENEQVEKPRILWALYFNMRDSSDISRSCYNDLPSNVYVCSGPDCGLGNDNAVKQAETLFQEICPNEDFCPPPPNPEDIILDGDSLQPEASESSAIPEANSETFKESTNLGNLEESSE |
